Patent US20240043519A1 (OHIO STATE INNOVATION FOUNDATION, published 2024)

How the values were obtained:
NOTCH2 = target: T1, NOTCH2 (human, UniProt Q04721 26-2471); assay: co-immunoprecipitation, THP-1 cells and human AML patient blasts (figure legend)
T1 construct: whole, on cells; Endogenous protein from cell lysates (co-IP); also called NOTCH2 protein

NOTCH1 = target: T2, NOTCH1 (human, UniProt P46531 19-2555); assay: as above
T2 construct: whole, on cells; Endogenous protein from cell lysates (antibody array, co-IP); also called NOTCH1 protein

T1 sequence (Q04721 26-2471): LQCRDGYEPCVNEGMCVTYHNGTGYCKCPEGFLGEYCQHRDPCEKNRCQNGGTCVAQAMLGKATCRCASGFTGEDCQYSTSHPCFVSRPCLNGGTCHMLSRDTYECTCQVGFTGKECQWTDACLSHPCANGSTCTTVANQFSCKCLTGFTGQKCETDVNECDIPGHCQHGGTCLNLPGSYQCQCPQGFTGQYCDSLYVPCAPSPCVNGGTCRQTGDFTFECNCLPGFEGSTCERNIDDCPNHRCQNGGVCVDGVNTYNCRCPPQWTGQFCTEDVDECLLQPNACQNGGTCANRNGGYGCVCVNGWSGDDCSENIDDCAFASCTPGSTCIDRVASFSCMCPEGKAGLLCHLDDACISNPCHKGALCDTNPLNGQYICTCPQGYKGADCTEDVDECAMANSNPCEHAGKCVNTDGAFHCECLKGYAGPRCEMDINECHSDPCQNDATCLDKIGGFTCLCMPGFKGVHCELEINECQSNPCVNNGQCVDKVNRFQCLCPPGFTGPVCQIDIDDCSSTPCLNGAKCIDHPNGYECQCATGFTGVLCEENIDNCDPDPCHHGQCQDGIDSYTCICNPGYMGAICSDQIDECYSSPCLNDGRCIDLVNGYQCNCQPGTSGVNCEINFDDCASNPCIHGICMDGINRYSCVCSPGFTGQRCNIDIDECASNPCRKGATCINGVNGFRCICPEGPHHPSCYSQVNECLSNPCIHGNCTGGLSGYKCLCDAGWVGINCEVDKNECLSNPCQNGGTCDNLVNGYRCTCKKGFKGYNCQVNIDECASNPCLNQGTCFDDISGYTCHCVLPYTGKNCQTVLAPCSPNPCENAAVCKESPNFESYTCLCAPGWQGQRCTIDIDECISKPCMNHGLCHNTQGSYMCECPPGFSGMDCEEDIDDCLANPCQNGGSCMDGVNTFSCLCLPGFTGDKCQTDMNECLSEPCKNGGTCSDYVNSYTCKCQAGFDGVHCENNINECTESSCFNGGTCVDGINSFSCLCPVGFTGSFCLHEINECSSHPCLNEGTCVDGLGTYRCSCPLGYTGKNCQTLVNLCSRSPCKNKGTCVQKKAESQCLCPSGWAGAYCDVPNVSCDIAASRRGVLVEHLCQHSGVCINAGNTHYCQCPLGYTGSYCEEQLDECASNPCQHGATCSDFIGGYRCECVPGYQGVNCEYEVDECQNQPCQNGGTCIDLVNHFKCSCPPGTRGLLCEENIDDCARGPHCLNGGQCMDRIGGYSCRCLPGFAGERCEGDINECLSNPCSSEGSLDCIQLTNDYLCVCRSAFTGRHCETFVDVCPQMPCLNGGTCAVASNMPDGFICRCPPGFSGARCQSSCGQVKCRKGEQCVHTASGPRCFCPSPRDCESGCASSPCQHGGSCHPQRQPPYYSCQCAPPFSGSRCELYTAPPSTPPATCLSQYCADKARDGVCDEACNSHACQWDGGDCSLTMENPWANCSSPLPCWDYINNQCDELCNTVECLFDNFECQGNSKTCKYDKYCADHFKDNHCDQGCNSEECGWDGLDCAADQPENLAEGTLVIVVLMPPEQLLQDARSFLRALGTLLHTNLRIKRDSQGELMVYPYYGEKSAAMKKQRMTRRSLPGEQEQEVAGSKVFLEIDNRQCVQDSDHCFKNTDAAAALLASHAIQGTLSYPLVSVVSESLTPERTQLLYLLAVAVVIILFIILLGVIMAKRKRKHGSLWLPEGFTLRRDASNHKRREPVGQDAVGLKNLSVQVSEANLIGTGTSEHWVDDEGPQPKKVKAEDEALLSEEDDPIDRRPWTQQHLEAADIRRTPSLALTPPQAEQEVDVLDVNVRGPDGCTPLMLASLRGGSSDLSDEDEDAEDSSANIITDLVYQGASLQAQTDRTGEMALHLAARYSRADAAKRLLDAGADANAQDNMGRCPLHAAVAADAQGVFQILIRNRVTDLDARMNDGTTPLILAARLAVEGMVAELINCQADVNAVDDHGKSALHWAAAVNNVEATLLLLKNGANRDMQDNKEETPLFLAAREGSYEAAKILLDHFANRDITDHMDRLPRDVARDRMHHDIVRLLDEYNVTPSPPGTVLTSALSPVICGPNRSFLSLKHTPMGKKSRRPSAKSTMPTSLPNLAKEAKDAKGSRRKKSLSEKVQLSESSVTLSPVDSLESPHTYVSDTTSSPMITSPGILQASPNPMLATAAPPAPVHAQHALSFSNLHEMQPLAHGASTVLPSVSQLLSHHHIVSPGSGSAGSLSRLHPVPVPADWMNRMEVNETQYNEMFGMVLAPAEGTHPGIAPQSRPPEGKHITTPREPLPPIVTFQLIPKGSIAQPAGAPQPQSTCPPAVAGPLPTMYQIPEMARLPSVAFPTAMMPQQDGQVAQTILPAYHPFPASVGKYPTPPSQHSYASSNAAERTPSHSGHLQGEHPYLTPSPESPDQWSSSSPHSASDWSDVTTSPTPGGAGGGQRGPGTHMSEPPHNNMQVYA

B1: EGFL7 protein (endogenous, in lysates of human AML cells: Kasumi-1, THP-1, primary AML patient blasts) (ligand)
chain: TEHAYRPGRRVCAVRAHGDPVSESFVQRVYQPFLTTCDGHRACSTYRTIYRTAYRRSPGLAPARPRYACCPGWKRTSGLPGACGAAICQPPCRNGGSCVQPGRCRCPAGWRGDTCQSDVDECSARRGGCPQRCVNTAGSYWCQCWEGHSLSADGTLCVPKGGPPRVAPNPTGVDSAMKEEVQRLQSRVDLLEEKLQLVLAPLHSLASQALEHGLPDPGSLLVHSFQQLGRIDSLSEQISFLEEQLGSCSCKKDS
notes: Endogenous protein immunoprecipitated from cell lysates; also called Epidermal growth factor-like domain 7
B1: binds (NOTCH2); binds (NOTCH1).
